Experimental data: patent US20220289837A1, “Cystic Fibrosis Transmembrane Conductance Regulator Stabilizing Agents” (VIB VZW, priority 2019, published 2022)

B1: D12: NBD1-specific CFTR-stabilizing nanobody, SEQ ID NO:2, binds epitope 1 (protein)
VHH: QVQLQESGGGLVQAGSSLRLACAATGSIRSINNMGWYRQAPGKQRGMVAIITRVGNTDYADSVKGRFTISRDNAKNTVYLQMNSLKPEDTATYYCHAEITEQSRPFYLTDDYWGQGTQVTVSS
modifications: D12 Nanobody amino acid sequence
B2: G3a: non-stabilizing nanobody, SEQ ID NO:50, recognizes the structurally diverse region of NBD1 (protein)
VHH: QVQLQESGGGLVQAGGSLRLSCTASGRAFSWYVMGWFRQAPGKEREFVATVSGNGSRRDYADSVKGRFTISRDNAKNTVYLQMNSLKPEDTAVYYCAASSTYYYTDPEKYDYWGQGTQVTVSS
modifications: G3a Nanobody
B3: T27: NBD1-specific CFTR-stabilizing nanobody, SEQ ID NO:4, binds epitope 1 (protein)
VHH: QVQLQESGGGLEQPGGSLRLSCATSGVIFGINAMGWYRQAPGKQRELVATFTSGGSTNYADFVEGRFTISRDNAKNTVYLQMNGLRPEDTAVYYCHATVVVSRYGLTYDYWGQGTQVTVSS
modifications: T27 Nanobody amino acid sequence
B4: T2a: NBD1-specific CFTR-stabilizing nanobody, SEQ ID NO:3, binds epitope 1 (protein)
VHH: QVQLQESGGGLVQAGGSLRLSCAASGSIFRIDAMGWYRQAPGKQRELVAHSTSGGSTDYADSVKGRFTISRDNAKNTVYLQMNSLKPEDTAVYYCNADVRTRWYASNNYWGQGTQVTVSS
modifications: T2a Nanobody amino acid sequence
B5: T8: nanobody, SEQ ID NO:7, binds epitope 2 including F508, stabilizes WT CFTR but not F508del (protein)
VHH: QVQLQESGGGLVQPGGSLRLSCAASGSTSSINAMGWYRQAPGKQREPVAISSSGGDTRYAEPVKGRFTISRDNAQNKVYLQMNSLKPEDTAVYYCWLNWGRTSVNSWGQGTQVTVSS
modifications: T8 Nanobody amino acid sequence

The molecules below were run on parental BHK-21 cells (assay: Flow cytometry on parental BHK-21 cells). Details: compared to negative control nanobody.
Assay type: cell-based, hamster
Protocol: Parental BHK-21 cells (ATCC; CCL-10) and cells stably overexpressing human wt-CFTR^[43,44,47] or 2PT-F508del-CFTR, as described above, were permeabilized with 0.01% n-Dodecyl-β-D-Maltopyranoside β-DDM—Inalco) at least for 2 h on ice. In the meantime, cells were incubated with 50 μg/ml nanobodies and DRAQ7 (0.3 μM—Biostatus) to monitor the permeabilization state. Nanobody binding was detected by using His-tag specific antibody (Invitrogen, catalogue number MA1-135, 1 μg/ml) or Myc-tag specific antibody (Invitrogen, catalogue number 13-2500, 2 μg/ml) and then anti-mouse-Alexa Fluor 488 (Invitrogen, catalogue number A11001, 1.3 μg/ml) at least for 30 min on ice. Cells were washed one time between each step by centrifugation (200×g for 5 min at 4° C.). All incubations (100 μl) and washes (1.5 ml) were performed in PBS with 6% fetal bovine serum (FBS) and 0.01%13-DDM on ice. Cells fluorescence was measured with Gallios Flow Cytometer (Beckman Coulter). Data were analyzed with Kaluza software.

Molecule	labelling of parental BHK-21 cells
B1	no difference in labelling
B2	no difference in labelling
B3	no difference in labelling
B4	no difference in labelling
B5	no difference in labelling

What follows are molecules tested against T1, purified human CFTR (wt-CFTR) (Homo sapiens, UniProt P13569) (assay: Full-length CFTR ELISA). Details: immobilized CFTR, nanobodies titrated.
T1 construct: His10-SUMO* (N); FLAG; EGFP (C); made in house; host or cells: HEK 293 cell line D165
T1 sequence (P13569 whole entry): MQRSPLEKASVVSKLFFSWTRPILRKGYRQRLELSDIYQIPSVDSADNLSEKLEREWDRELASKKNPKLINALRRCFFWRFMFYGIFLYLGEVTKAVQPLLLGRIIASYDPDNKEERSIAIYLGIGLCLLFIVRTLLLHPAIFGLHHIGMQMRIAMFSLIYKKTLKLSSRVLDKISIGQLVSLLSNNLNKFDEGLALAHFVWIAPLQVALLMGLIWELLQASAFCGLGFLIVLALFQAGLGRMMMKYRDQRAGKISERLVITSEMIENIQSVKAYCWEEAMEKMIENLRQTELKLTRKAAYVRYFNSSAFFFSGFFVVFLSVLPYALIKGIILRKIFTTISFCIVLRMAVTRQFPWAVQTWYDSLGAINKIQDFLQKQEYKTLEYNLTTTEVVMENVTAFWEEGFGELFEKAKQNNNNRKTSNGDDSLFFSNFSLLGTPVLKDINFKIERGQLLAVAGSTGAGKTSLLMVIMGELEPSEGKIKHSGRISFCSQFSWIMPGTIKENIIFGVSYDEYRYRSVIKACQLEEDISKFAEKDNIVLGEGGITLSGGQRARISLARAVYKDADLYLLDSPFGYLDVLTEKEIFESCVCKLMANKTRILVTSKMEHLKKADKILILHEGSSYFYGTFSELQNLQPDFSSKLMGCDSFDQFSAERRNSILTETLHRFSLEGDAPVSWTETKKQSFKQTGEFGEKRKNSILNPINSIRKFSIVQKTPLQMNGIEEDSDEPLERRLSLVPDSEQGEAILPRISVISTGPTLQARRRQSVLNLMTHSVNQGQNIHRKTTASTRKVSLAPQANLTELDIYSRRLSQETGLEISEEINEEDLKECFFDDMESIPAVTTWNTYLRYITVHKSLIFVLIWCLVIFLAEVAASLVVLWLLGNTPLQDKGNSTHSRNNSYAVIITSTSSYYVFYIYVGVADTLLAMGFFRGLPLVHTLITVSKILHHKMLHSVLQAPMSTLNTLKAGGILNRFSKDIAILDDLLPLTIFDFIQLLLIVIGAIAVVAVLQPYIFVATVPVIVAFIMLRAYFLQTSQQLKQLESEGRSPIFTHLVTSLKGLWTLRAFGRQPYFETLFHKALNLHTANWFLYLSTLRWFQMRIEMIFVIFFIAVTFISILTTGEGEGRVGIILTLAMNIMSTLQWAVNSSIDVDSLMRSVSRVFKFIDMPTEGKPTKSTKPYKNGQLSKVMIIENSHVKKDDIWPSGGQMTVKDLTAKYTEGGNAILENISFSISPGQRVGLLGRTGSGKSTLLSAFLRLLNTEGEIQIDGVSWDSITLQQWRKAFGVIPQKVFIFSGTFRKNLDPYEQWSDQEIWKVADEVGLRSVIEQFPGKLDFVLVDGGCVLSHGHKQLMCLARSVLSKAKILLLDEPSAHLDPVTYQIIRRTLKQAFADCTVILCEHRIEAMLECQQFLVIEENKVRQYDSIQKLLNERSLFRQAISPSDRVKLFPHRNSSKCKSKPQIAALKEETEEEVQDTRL
Assay type: binding
Protocol: Strep-Tactin XT coated microplate (iba Life Science) was coated overnight at 4° C. with Twin-Strep-tagged nanobodies (5 μg/ml). Plate was blocked with 4% milk for 2 h at RT. Then different concentrations of CFTR (10^−10 to 10^−8 M) were incubated for 2 h at 4° C. CFTR binding was detected with monoclonal antibodies L12B4, MM13, 154, 660, 570, 596 specific to CFTR obtained from the CFTR Antibody Distribution Program (http://cftrantibodies.web.unc.edu/available-antibodies)46 and then anti-mouse-HRP antibody (Millipore, catalogue number: AP308P, 0.5 μg/ml) for 1 h 30 min at 4° C. For Bmax determination Pierce Nickel Coated Plate (ThermoScientific) was coated 1 h at 4° C. with CFTR (8 μg/ml). Plate was blocked with 4% milk for 2 h at 4° C. Then different concentrations of nanobodies (10^−9 to 10^−6 M) were incubated for 2 h at 4° C. Nanobody binding was detected with Myc-tag specific antibody (Sigma, catalogue number: C3956, 0.5 μg/ml) and then anti-rabbit-HRP antibody (Cell Signaling, catalogue number: 7074S, 1:1000 dilution) for 1 h 30 min at 4° C. Between each step wells were washed 3 times by aspiration with 50 mM HEPES pH 7.5, 150 mM NaCl, 10% glycerol, 2 mM ATP, 2.5 mM MgCl2, 0.01% DMNG (Anatrace). Incubations were performed in the same buffer with 0.4% milk. Reaction was visualized by using 1-Step Ultra TMB-ELISA (ThermoScientific) and stopped with H2SO4 (500 mM final). Absorbance was measured at 450 nm using SynergyMx (BioTek).
Affinity constants (KD) and thermodynamic parameters from ITC experiments were determined using one-site binding model with MicroCal Origin 7.0 software (Origin Lab Corp.). Dose response ELISA curves of each Nb binding to either isolated NBD1 or purified FL-CFTR were fitted using the sigmoidal dose-response equation from GraphPad Prism 3. DSC data were analyzed with the MicroCal Origin 7.0 software (Origin Lab Corp.), from which the unfolding temperature (Tm) was obtained.

Molecule	Bmax
B2	about 50 % of T2a maximum signal
B5	~30 % of T2a maximum signal

Same assay, conditions: nanobodies immobilized, purified FL-CFTR titrated

Molecule	binding of purified FL-CFTR
B2	bind with high affinity
B4	bind with high affinity
B5	bind with high affinity

These molecules were tested against T2, F508del-CFTR (Homo sapiens, UniProt P13569, DEL508-508) (assay: HS-YFP quenching assay). Details: HEK293T F508del-CFTR + HS-YFP, 10 μM forskolin and 3 μM VX770, 3 μM VX809 or DMSO 24 h.
T2 construct: expressed in transfected cells
T2 sequence (P13569 with tags, fused parts or gaps DEL508-508): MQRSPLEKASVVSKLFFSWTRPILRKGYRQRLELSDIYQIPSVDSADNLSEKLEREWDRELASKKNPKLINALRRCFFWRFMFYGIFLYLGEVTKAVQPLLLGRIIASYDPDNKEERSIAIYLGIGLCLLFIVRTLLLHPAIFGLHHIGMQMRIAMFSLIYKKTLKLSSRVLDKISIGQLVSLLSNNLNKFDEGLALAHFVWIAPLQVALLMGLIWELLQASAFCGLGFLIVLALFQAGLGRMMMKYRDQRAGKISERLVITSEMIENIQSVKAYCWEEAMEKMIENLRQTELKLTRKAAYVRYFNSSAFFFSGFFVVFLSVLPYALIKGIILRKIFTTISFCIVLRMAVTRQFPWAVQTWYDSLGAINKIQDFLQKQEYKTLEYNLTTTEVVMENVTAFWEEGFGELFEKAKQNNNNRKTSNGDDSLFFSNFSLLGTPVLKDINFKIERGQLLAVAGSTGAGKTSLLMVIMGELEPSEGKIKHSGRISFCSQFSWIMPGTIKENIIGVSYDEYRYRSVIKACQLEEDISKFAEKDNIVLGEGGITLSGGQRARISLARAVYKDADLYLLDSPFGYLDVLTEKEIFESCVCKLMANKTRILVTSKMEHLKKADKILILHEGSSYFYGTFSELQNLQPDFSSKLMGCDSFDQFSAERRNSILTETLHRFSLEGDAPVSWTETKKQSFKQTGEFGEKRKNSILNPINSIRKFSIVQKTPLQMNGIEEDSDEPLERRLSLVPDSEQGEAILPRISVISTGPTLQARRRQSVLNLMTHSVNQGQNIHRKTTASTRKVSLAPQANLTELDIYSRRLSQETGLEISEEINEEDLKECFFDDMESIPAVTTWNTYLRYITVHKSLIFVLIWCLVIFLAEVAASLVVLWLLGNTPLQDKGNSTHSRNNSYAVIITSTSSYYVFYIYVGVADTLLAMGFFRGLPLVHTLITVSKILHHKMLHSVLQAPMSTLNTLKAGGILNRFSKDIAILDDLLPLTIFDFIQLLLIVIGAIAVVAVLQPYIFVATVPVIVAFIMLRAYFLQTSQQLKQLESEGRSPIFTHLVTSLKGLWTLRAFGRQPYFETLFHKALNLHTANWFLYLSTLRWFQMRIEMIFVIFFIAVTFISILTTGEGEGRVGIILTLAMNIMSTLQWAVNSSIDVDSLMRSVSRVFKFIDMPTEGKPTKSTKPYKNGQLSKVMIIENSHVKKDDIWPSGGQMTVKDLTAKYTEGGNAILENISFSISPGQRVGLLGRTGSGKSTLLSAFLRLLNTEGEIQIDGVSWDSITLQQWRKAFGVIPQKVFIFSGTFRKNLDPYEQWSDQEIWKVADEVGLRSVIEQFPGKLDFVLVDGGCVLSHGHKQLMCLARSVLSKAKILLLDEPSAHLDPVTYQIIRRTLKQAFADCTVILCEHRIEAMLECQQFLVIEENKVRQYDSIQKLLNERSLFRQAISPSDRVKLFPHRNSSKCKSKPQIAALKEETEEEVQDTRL
Assay type: cell-based
Protocol: To study CFTR function in cells, we used a HS-YFP quenching assay where changes in fluorescence of halide sensitive YFP (HS-YFP) reflect halide entrance through CFTR. HEK293T cells stably expressing F508del-CFTR (or WT CFTR as a control) and a modified YFP were transiently transfected with pcDNA3-based plasmid coding either for a stabilizing nanobody (T2a, D12 or T27) or a control nanobody (not binding F508del-CFTR) and incubated with 3 μM VX809 corrector or 0.06% DMSO for 24 h. Before addition of iodide, cells are stimulated by 10 μM forskolin and 3 μM VX770 potentiator for 20 mins and YFP fluorescence signal is measured (excitation 485, emission 535 nm) over a period of 4 seconds.
The assay was performed as described previously in (Ensinck, et al. 2020) with minor modifications. Briefly, cells stably expressing wt- or F508del-CFTR and a halide sensitive yellow fluorescent protein (HS-YFP) (Galietta, et al. 2001) were transfected with plasmids encoding the nanobodies using PEI and immediately plated into black, clear-bottomed 96-well plates coated with Poly-D-Lysine. After overnight incubation VX-809 (3 μM) or DMSO was added for 24 h. Next, the cells were washed with DPBS and potentiator VX-770 (3 μM) and/or CFTR activator forskolin (#F3917, Sigma-Aldrich, 10 μM) was added for 20 min. Fluorescence was measured after which a I^− buffer (137 mM Nal, 2.7 mM KI, 1.7 mM KH2PO4, 10.1 mM Na2HPO4, 5 mM D-glucose) was injected into the well and fluorescence monitored for another 4 s. YFP quenching was determined at the end of the interval as F/F0, and CFTR function as 1-(F/F0).

Molecule	quenching of YFP (CFTR function)
B1	quenching of YFP
B3	quenching of YFP
B4	quenching of YFP
